By Kd is commonly meant a measure of binding affinity in units of concentration. Higher therefore signals weaker binding.

For one substance, Kd results are on record in paper PMC8632722.

This assay has as its target His-TF-LqqP (Lysobacter enzymogenes OH11). As to the kind of experiment: MST.

PcoI-His (enzyme) had a Kd of 646 nM.
